{"source": "the nanobody polyreactivity screen of Harvey et al. (2022)", "data": [{"assay": "yeast display, Sf9 membrane polyspecificity reagent, FACS + sequencing; frameworks hold sequencing errors", "how_it_was_run": "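Polyreactivity labels are assigned by the sorting gate from which each nanobody was recovered. The gates were low and high (top ~1%), set on anti-HA fluorescence for expression and streptavidin fluorescence for reagent binding. Before sorting, galactose-induced (36–48 hours) yeast display cells were stained for 1 hour at 4 °C with 10% biotinylated, detergent-solubilized Sf9 membrane reagent.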", "values": [{"sequence": "QVQLVESGGGLVQAGGSLRLSCAASGLTFYVYAMGWYRQAPGKERELVAAINWSGGNTYYADSVKGRFTISRDNAKNTVYLQMNSLKPEDTAVYYCAAELYYPVGFDYWGQGTQVTVSS", "polyreactivity (PSR sort gate)": "high polyreactivity"}, {"sequence": "QVQLVESGGGLVQAGGSLRLSCAASGLTFYVYAMGWYRQAPGKERELVAAISSGGRTYYADSVKGRFTISRDNAKNTVYLQMNSLKPEDTAVYYCAAVRHRNYWGQGTQVTVSS", "polyreactivity (PSR sort gate)": "high polyreactivity"}, {"sequence": "QVQLVESGGGLVQAGGSLRLSCAASGLTFYWYVMGWYRQAPGKERELVAAITGGGSSTYYADSVKGRFTISRDNAKNTVYLQMNSLKPEDTAVYYCAADYRGGIRYYRGAAYNYWGQGTQVTVSS", "polyreactivity (PSR sort gate)": "high polyreactivity"}, {"sequence": "QVQLVESGGGLVQAGGSLRLSCAASGLTFYYYAMGWYRQAPGKERELVATITSSGARTYYADSVKGRFTISRDNAKNTVYLQMNSLKPEDTEVYYCAADYGIWQRGSHYWDMDYWGQGTQVTVSS", "polyreactivity (PSR sort gate)": "high polyreactivity"}, {"sequence": "QVQLVESGGGLVQAGGSLRLSCAASGLTFYYYDMGWYRQAPGKERELVAAITSGGSSTYYADSVKGRITISRDNAKNTVYLQMNSLKPEDTAVYYCNADSPYIPYIYDYWGQGTQVTVSS", "polyreactivity (PSR sort gate)": "low polyreactivity"}, {"sequence": "QVQLVESGGGLVQAGGSLRLSCAASGLTFYYYVMGWYRQAPGKERELVAAINATGGRTYYADSVKGRFTISRDNAKNTVYLQMNSLKPEDTAVYYCAAYSGFYASYDYWGQGTLVTVSS", "polyreactivity (PSR sort gate)": "low polyreactivity"}, {"sequence": "QVQLVESGGGLVQAGGSLRLSCAASGLTIFVNAMGCYRQAPGKERELVATISGGGSTYYADSVKGRFTISRDNAKNTVYLQMNSLKPEDTAVYYCNADVLFYTYYTRGRFDFDYWGQGTQVTVSS", "polyreactivity (PSR sort gate)": "low polyreactivity"}, {"sequence": "QVQLVESGGGLVQAGGSLRLSCAASGLTIGYYAMGWYRQAPGKERELVATITWRGVRTYYADSVKGRFTISRDNAKNTVYLQMNSLKPEDTAVYYCDKGYWSKGERWFGGFGYWGQGTQVTVSS", "polyreactivity (PSR sort gate)": "low polyreactivity"}, {"sequence": "QVQLVESGGGLVQAGGSLRLSCAASGLTINGNTMGLYRQAPGKERELVAVIDWSGGSTYYADSVKGRFTISRDNAKNTVYLQMNSLKPEDTAVYYCNAETRDPILYGEYDYWGQGTQVTVSS", "polyreactivity (PSR sort gate)": "low polyreactivity"}, {"sequence": "QVQLVESGGGLVQAGGSLRLSCAASGLTIQRNDMGWYRQAPGKEREFVATITSNAGSTYYADSVKGRFTISRDNAKNTVYLQMNSLKPEDTAVYYCARERWWGDGYWGQGTQVTVSS", "polyreactivity (PSR sort gate)": "high polyreactivity"}, {"sequence": "QVQLVESGGGLVQAGGSLRLSCAASGLTIWANTKGWYRQAPGKERELVAAISLSDGSTYYADSVKGRFTISRDNAKNTVYVQMNSLKPEDTAVYYCAARVQHYLATDDYWGQGTQVTVSS", "polyreactivity (PSR sort gate)": "low polyreactivity"}, {"sequence": "QVQLVESGGGLVQAGGSLRLSCAASGLTIYHYAMGWYRQAPGKERELVAAISWNGGSTYYADSVKGRFTISRDNAKNTVYLQMNSLKPEDTAVYYCAVVFNPHRYTGVLAGYDYWGQGTQVTVSS", "polyreactivity (PSR sort gate)": "high polyreactivity"}, {"sequence": "QVQLVESGGGLVQAGGSLRLSCAASGLTLAWYAMGWYRQAPGKERELVAAISWSGDSTYYADSVKGRFTISRDNAKNTVYLQMNSLKPEDTEVYYCATRVYGGYGYWGQGTQVTVSS", "polyreactivity (PSR sort gate)": "high polyreactivity"}, {"sequence": "QVQLVESGGGLVQAGGSLRLSCAASGLTLEGYVMGWYRQAPGKERELVAAISRRGASTYYADSVKGRFTISRDNAKNTVYLQMNSLKTEDTAVYYCAAYGAYNNYRGQTSLGYGYDSWGQGTQVTVSS", "polyreactivity (PSR sort gate)": "high polyreactivity"}, {"sequence": "QVQLVESGGGLVQAGGSLRLSCAASGLTLGHNAMGWYRQAPGKERELVAAITNYADSVKGRFTISRDNAKNTVYLQMNSLKPEDTAVYYCAADWWRVEMDYWGQGTQVTVSS", "polyreactivity (PSR sort gate)": "low polyreactivity"}, {"sequence": "QVQLVESGGGLVQAGGSLRLSCAASGLTLQGYVMGWSRQAPGKERELVAAISTGGSTHYADSVKGRFTISRDNAKNTVYLQMNSLKPEDTAVYYCAAGWVLWFRDPQGRASYYWGQGTQVTVSS", "polyreactivity (PSR sort gate)": "high polyreactivity"}, {"sequence": "QVQLVESGGGLVQAGGSLRLSCAASGLTLRRYAMGWYIQAPGKERELVASINSGTSTKYADSVKGRFTISRDNAKNTVYLQMKSLKPEDTALYYCGAAVYFPTAGSRRAYYYWGQGTQGTVSS", "polyreactivity (PSR sort gate)": "high polyreactivity"}, {"sequence": "QVQLVESGGGLVQAGGSLRLSCAASGLTLRYYVMGWNSQAPGKERELVAAISSGGGSTYYADSVKGRFTISRDNAKNTVYLQMNSRKPEDTAVYYCAADSVSRYNGYDYWGQGTQVTVSS", "polyreactivity (PSR sort gate)": "high polyreactivity"}, {"sequence": "QVQLVESGGGLVQAGGSLRLSCAASGLTLSYNAMGWYRPAPGKERELVAAIRSGGSTNYADAVKGRFTISRDNANNTVYLQMNSLKPEDTAVYYCAARCRYLPYRDGRYQSGYEYWGQGTQVTVSS", "polyreactivity (PSR sort gate)": "high polyreactivity"}, {"sequence": "QVQLVESGGGLVQAGGSLRLSCAASGLTLTYYPMGLYRQAPGKERELVAAISSSGGSTYYADSVKGRFTISRDNAKNTVYLQMNSLKPEDSAVYDCAATRVSWTGRDDYWGQGTQVTVSS", "polyreactivity (PSR sort gate)": "high polyreactivity"}, {"sequence": "QVQLVESGGGLVQAGGSLRLSCAASGLTLYYYAMGWYRQAPGKERELVAAMSYSGGSTYYADSVKGRFTISRDNAKNPVYLQMNSVKPEDTAVYYCAAVGDSDIRDEYWGQGTQVTVSS", "polyreactivity (PSR sort gate)": "low polyreactivity"}, {"sequence": "QVQLVESGGGLVQAGGSLRLSCAASGLTSEGNAMGWYRQAPGKERELVAAIDYRGGSTYYADSVKGRFTISRDNAKNSVYLQMNSLKPEDTAVYYCAADYPRGYIDDGDYWGQGTQVTVSS", "polyreactivity (PSR sort gate)": "low polyreactivity"}, {"sequence": "QVQLVESGGGLVQAGGSLRLSCAASGLTSVSNAMGWYRPAPGKERELVAAISSRGGITYYADSVKGRFTISRDNAKNTVYLQMNSLKPEDTAVYYCAKKTVQRGYYYWGQGTQVTVSS", "polyreactivity (PSR sort gate)": "high polyreactivity"}, {"sequence": "QVQLVESGGGLVQAGGSLRLSCAASGLTSWYNAMGWYRQAPGKEREFVAAISFSGGRTFYADSVKGRFTISRDNAKKTVYLQMNSLKPEDTAGYYCNADVYGFDYWGQGTQVTVSS", "polyreactivity (PSR sort gate)": "high polyreactivity"}, {"sequence": "QVQLVESGGGLVQAGGSLRLSCAASGLTSYFYDMGWYRQAPGKERELVAAIRASAARTYYADTVKGRFTISRDNAKNTVYLQMNSLKPEDTAVYSCAARYGYWRQFRWKYDYWGHGTQVTVSS", "polyreactivity (PSR sort gate)": "high polyreactivity"}, {"sequence": "QVQLVESGGGLVQAGGSLRLSCAASGLTSYSYAMGWYRPAPGKERELVAAITVNGGRTYYADSVKGRFTISRDNAKNTVYLQMNSLKPEDTAVYYCAAREVTGRPRSYYYWGQGTQVTVSS", "polyreactivity (PSR sort gate)": "low polyreactivity"}, {"sequence": "QVQLVESGGGLVQAGGSLRLSCAASGMIFADYVMGWYRQAPGKERELVATINQGGGSTYYADSVKGRFTISRDNAKNTVYLQMNSLKPEDTAVYYCAATWALLYAIFESYDYWGQGTQVTVSS", "polyreactivity (PSR sort gate)": "low polyreactivity"}, {"sequence": "QVQLVESGGGLVQAGGSLRLSCAASGMIFFNYYAMGWYRQAPGKESELVAAIRYGGGSTYYADSVKGRFTISRDNGKNTVYLQMNSLKPEDTAVYYCAARFKGYYRYGYWGQGTQVTVSS", "polyreactivity (PSR sort gate)": "high polyreactivity"}, {"sequence": "QVQLVESGGGLVQAGGSLRLSCAASGMIFPGNTMGWYRQAPGKERELVAAITNGVSTNYADSVKGRFTISRDNAKNTVYLQMNSLKPEDTAVYYCNGPFNYVGGYSNYSGFVYWGQGTQVTVSS", "polyreactivity (PSR sort gate)": "high polyreactivity"}, {"sequence": "QVQLVESGGGLVQAGGSLRLSCAASGMIFVNAMGWYRQAPGKEREFVAAITYSTGSTYYADSVKGRFTISRDNAKNTVYLQMNSLKPEDTAVYYCAKDRSGHGTERDYWGQGTQVTVSS", "polyreactivity (PSR sort gate)": "low polyreactivity"}, {"sequence": "QVQLVESGGGLVQAGGSLRLSCAASGNAMGWYRQAPGKERELVAAITRRGGSTYYADSVKGRFTISRDNAKNTVYLQMNSLKPEDTAVYYCNADYAYYSYDYWGQGTQVTVSS", "polyreactivity (PSR sort gate)": "low polyreactivity"}, {"sequence": "QVQLVESGGGLVQAGGSLRLSCAASGNFFVLYAMGWYRQAPGKERELVASITSDGITYYADSGKGRFTISRDNAKNTVYLQMNSLKPEDTAVYYCAVDRSYRYLPRGDYWGQGTQVTVSS", "polyreactivity (PSR sort gate)": "low polyreactivity"}, {"sequence": "QVQLVESGGGLVQAGGSLRLSCAASGNIFAPNAMGWYRQAPGKERELVAAISRSGGSTHYADSVKGRFTISRDNAKNTVYLQMNSLKPEDTAVYYCAAGWYGRYTSKMGYWGQGTQVTVSS", "polyreactivity (PSR sort gate)": "high polyreactivity"}, {"sequence": "QVQLVESGGGLVQAGGSLRLSCAASGNIFAYYAMGWYRQAPGKERELVAAITDSGGNTFYADSVKGRFTISRDNAKNTVYLQMNSLKPEDTAVYYCAVRHRYTRAYWGRDYWGQGTQVTVSS", "polyreactivity (PSR sort gate)": "low polyreactivity"}, {"sequence": "QVQLVESGGGLVQAGGSLRLSCAASGNIFDEYTMGWYRQAPGKEREFVAGISDDGDTSYADSVKGRFTISRDNAKNTVYLQMNSLKPEDTAVYYCNADDLSYYESYWGFLYDYWGQGTQVTVSS", "polyreactivity (PSR sort gate)": "low polyreactivity"}, {"sequence": "QVQLVESGGGLVQAGGSLRLSCAASGNIFDGYAMGWYRQAPGKEREMVAAITSSAGSTYYADSVKGRFTISRDNAKNTVYLQMNSLKPEDTAVYYCNKVTKYRPIEGSWGQGTQVTVSS", "polyreactivity (PSR sort gate)": "high polyreactivity"}, {"sequence": "QVQLVESGGGLVQAGGSLRLSCAASGNIFDIYAMGRYRQAPGKERELVAAISSGGSTYYADSVKGRFTISRDNAKNTVYLQMNSLKPEDTAVYYCAESRVGYYRYEYWGQGTQVTVSS", "polyreactivity (PSR sort gate)": "low polyreactivity"}, {"sequence": "QVQLVESGGGLVQAGGSLRLSCAASGNIFDIYAMGWYRPAPGTERELVAAISSGGSTYYADSVKGRFTISRDNAKNTVYLQMNSLKPEDTAVYYCAESRVGYYRYEYWGQGTQVTVSS", "polyreactivity (PSR sort gate)": "low polyreactivity"}, {"sequence": "QVQLVESGGGLVQAGGSLRLSCAASGNIFDRYAMGWYRQAPGKERELVAGITWSGGSTYYADSVKGRFTISRDNAKNTVYLQMNSLKPEDTAVYYCGQANYYWGQGSQVTVSS", "polyreactivity (PSR sort gate)": "low polyreactivity"}, {"sequence": "QVQLVESGGGLVQAGGSLRLSCAASGNIFDRYVMGWYRQAPVKERELVAAISVSGGSTYYADSVKGRFTISRDNEKNSVYLQMNCLKPEDTAVYYCAAHSRLINWYDYWGQGTQVTVSS", "polyreactivity (PSR sort gate)": "high polyreactivity"}, {"sequence": "QVQLVESGGGLVQAGGSLRLSCAASGNIFFIYAMGWYRQAPGKERELVAAITSTGSTYYADSVKGRFTISRDNAKNTVYLQMNSLKPEDTAVYYCAALLQRRFAYDYWGQGTQVTVSS", "polyreactivity (PSR sort gate)": "low polyreactivity"}, {"sequence": "QVQLVESGGGLVQAGGSLRLSCAASGNIFFTYAMGWYRQAPGKERELVAAITSGGRTYYADSVKGRFTISRENPKNTFYLQMNSLKPEDTAVYYCASYYKYLGYGYWGQGTQVTVSS", "polyreactivity (PSR sort gate)": "high polyreactivity"}, {"sequence": "QVQLVESGGGLVQAGGSLRLSCAASGNIFFVYAMGWYRQAPGKERELVATITWRGDSTNYADSVKGRFTISRDNAKNTVYLQMNSLKPEDTAVYYCNAEDSYYTFEGDSWGQGTQVTVSS", "polyreactivity (PSR sort gate)": "low polyreactivity"}]}]}
